Test results: patent publication US20220153847A1 (Chugai, published 2022)

T1: HLA-DQ2.5 on HLA-DQ2.5-positive PBMC B cells (human, UniProt P01909 24-254; P01920 33-261)
T1 construct: whole, on cells; also called HLA-DQ2.5+ PBMC B cell
T1 MHC II alpha: not shown
T1 MHC II beta: not shown


Assays:
[1] = target: T2, HLA-DQ2.5/CLIP peptide complex on Ba/F3 cells (human); assay: FACS, Ba/F3 cells; IC17=0%, DQN0139bb//IC17=100%;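 also: flow cytometry binding of anti-HLA-DQ antibodies at 5 µg/mL, incubated 30 min at room temperature with Ba/F3 lines presenting HLA-DQ/peptide complexes; antibody tested at 5 microgram/mL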
T2 construct: whole, on cells; also called Ba/F3-HLA-DQ2.5/CLIP
From the text: (§1) The binding of anti-HLA-DQ antibodies to Ba/F3-HLA-DQ2.5, Ba/F3-HLA-DQ2.2, Ba/F3-HLA-DQ7.5, Ba/F3-HLA-DQ8, Ba/F3-HLA-DQ5.1, Ba/F3-HLA-DQ6.3, Ba/F3-HLA-DQ7.3, Ba/F3-HLA-DR, Ba/F3-HLA-DP, Ba/F3-HLA-DQ2.5/CLIP, Ba/F3-HLA-DQ2.5/HBV, Ba/F3-HLA-DQ2.5/Salmonella, Ba/F3-HLA-DQ2.5/TPO, Ba/F3-HLA-DQ2.5/M. bovis, Ba/F3-HLA-DQ2.5/alpha 1 gliadin, Ba/F3-HLA-DQ2.5/alpha 2 gliadin, Ba/F3-HLA-DQ2.5/gamma 1 gliadin, Ba/F3-HLA-DQ2.5/gamma 2 gliadin, Ba/F3-HLA-DQ2.5/omega 1 gliadin, Ba/F3-HLA-DQ2.5/omega 2 gliadin, Ba/F3-HLA-DQ2.5/BC hordein, Ba/F3-HLA-DQ2.5/alpha 3 gliadin, Ba/F3-HLA-DQ2.5/alpha 1b gliadin, Ba/F3-HLA-DQ2.5/gamma 4b gliadin, Ba/F3-HLA-DQ2.5/avenin 1, Ba/F3-HLA-DQ2.5/avenin 2, Ba/F3-HLA-DQ2.5/avenin 3, Ba/F3-HLA-DQ2.5/hordein 1, Ba/F3-HLA-DQ2.5/hordein 2, Ba/F3-HLA-DQ2.5/secalin 1, Ba/F3-HLA-DQ2.5/secalin 2, Ba/F3-HLA-DQ2.5/14mer 1, Ba/F3-HLA-DQ2.5/33mer gliadin, Ba/F3-HLA-DQ2.5/26mer gliadin, was tested. 5 microgram/mL of each of the anti-HLA-DQ antibodies was incubated with each cell line for 30 minutes at room temperature and washed with FACS buffer (2% FBS, 2 mM EDTA in PBS).

[2] = target: T3, HLA-DQ2.5/alpha 1 gliadin peptide complex on Ba/F3 cells (human); assay: FACS, Ba/F3 cells; IC17=0%, DQN0139bb//IC17=100%;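 also: flow cytometry binding of anti-HLA-DQ antibodies at 5 µg/mL, incubated 30 min at room temperature with Ba/F3 lines presenting HLA-DQ/peptide complexes; antibody tested at 5 microgram/mL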
T3 construct: whole, on cells; also called Ba/F3-HLA-DQ2.5/alpha 1 gliadin; HLA-DQ2.5/a1 gliadin
From the text: as §1

[3] = target: T4, HLA-DQ2.5/alpha 2 gliadin peptide complex on Ba/F3 cells (human); assay: FACS, Ba/F3 cells; IC17=0%, DQN0139bb//IC17=100%;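 also: flow cytometry binding of anti-HLA-DQ antibodies at 5 µg/mL, incubated 30 min at room temperature with Ba/F3 lines presenting HLA-DQ/peptide complexes; antibody tested at 5 microgram/mL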
T4 construct: whole, on cells; also called Ba/F3-HLA-DQ2.5/alpha 2 gliadin; HLA-DQ2.5/a2 gliadin
From the text: as §1

[4] = target: T5, HLA-DQ2.5/gamma 1 gliadin peptide complex on Ba/F3 cells (human); assay: FACS, Ba/F3 cells; IC17=0%, DQN0139bb//IC17=100%;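 also: flow cytometry binding of anti-HLA-DQ antibodies at 5 µg/mL, incubated 30 min at room temperature with Ba/F3 lines presenting HLA-DQ/peptide complexes; antibody tested at 5 microgram/mL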
T5 construct: whole, on cells; also called Ba/F3-HLA-DQ2.5/gamma 1 gliadin; HLA-DQ2.5/g1 gliadin
From the text: as §1

[5] = target: T6, HLA-DQ2.5/gamma 2 gliadin peptide complex on Ba/F3 cells (human); assay: FACS, Ba/F3 cells; IC17=0%, DQN0139bb//IC17=100%
T6 construct: whole, on cells; also called Ba/F3-HLA-DQ2.5/gamma 2 gliadin; HLA-DQ2.5/g2 gliadin
From the text: as §1

[6] = target: T7, HLA-DQ2.5/omega 1 gliadin peptide complex on Ba/F3 cells (human); assay: FACS, Ba/F3 cells; IC17=0%, DQN0139bb//IC17=100%
T7 construct: whole, on cells; also called Ba/F3-HLA-DQ2.5/omega 1 gliadin; HLA-DQ2.5/w1 gliadin
From the text: as §1

[7] = target: T8, HLA-DQ2.5/omega 2 gliadin peptide complex on Ba/F3 cells (human); assay: FACS, Ba/F3 cells; IC17=0%, DQN0139bb//IC17=100%
T8 construct: whole, on cells; also called Ba/F3-HLA-DQ2.5/omega 2 gliadin; HLA-DQ2.5/w2 gliadin
From the text: as §1

[8] = target: T9, HLA-DQ2.5/BC hordein peptide complex on Ba/F3 cells (human); assay: FACS, Ba/F3 cells; IC17=0%, DQN0139bb//IC17=100%
T9 construct: whole, on cells; also called Ba/F3-HLA-DQ2.5/BC hordein
From the text: as §1

[9] = target: T10, HLA-DQ2.5/alpha 3 gliadin peptide complex on Ba/F3 cells (human); assay: FACS, Ba/F3 cells; IC17=0%, DQN0139bb//IC17=100%
T10 construct: whole, on cells; also called Ba/F3-HLA-DQ2.5/alpha 3 gliadin; HLA-DQ2.5/a3 gliadin
From the text: as §1

[10] = target: T11, HLA-DQ2.5/alpha 1b gliadin peptide complex on Ba/F3 cells (human); assay: FACS, Ba/F3 cells; IC17=0%, DQN0139bb//IC17=100%
T11 construct: whole, on cells; also called Ba/F3-HLA-DQ2.5/alpha 1b gliadin; HLA-DQ2.5/a1b gliadin
From the text: as §1

[11] = target: T12, HLA-DQ2.5/gamma 4b gliadin peptide complex on Ba/F3 cells (human); assay: FACS, Ba/F3 cells; IC17=0%, DQN0139bb//IC17=100%
T12 construct: whole, on cells; also called Ba/F3-HLA-DQ2.5/gamma 4b gliadin; HLA-DQ2.5/g4b gliadin
From the text: as §1

[12] = target: T13, HLA-DQ2.5/avenin 1 peptide complex on Ba/F3 cells (human); assay: FACS, Ba/F3 cells; IC17=0%, DQN0139bb//IC17=100%
T13 construct: whole, on cells; also called Ba/F3-HLA-DQ2.5/avenin 1
From the text: as §1

[13] = target: T14, HLA-DQ2.5/avenin 2 peptide complex on Ba/F3 cells (human); assay: FACS, Ba/F3 cells; IC17=0%, DQN0139bb//IC17=100%
T14 construct: whole, on cells; also called Ba/F3-HLA-DQ2.5/avenin 2
From the text: as §1

[14] = target: T15, HLA-DQ2.5/avenin 3 peptide complex on Ba/F3 cells (human); assay: FACS, Ba/F3 cells; IC17=0%, DQN0139bb//IC17=100%
T15 construct: whole, on cells; also called Ba/F3-HLA-DQ2.5/avenin 3
From the text: as §1

[15] = target: T16, HLA-DQ2.5/hordein 1 peptide complex on Ba/F3 cells (human); assay: FACS, Ba/F3 cells; IC17=0%, DQN0139bb//IC17=100%
T16 construct: whole, on cells; also called Ba/F3-HLA-DQ2.5/hordein 1
From the text: as §1

[16] = target: T17, HLA-DQ2.5/hordein 2 peptide complex on Ba/F3 cells (human); assay: FACS, Ba/F3 cells; IC17=0%, DQN0139bb//IC17=100%
T17 construct: whole, on cells; also called Ba/F3-HLA-DQ2.5/hordein 2
From the text: as §1

[17] = target: T18, HLA-DQ2.5/secalin 1 peptide complex on Ba/F3 cells (human); assay: FACS, Ba/F3 cells; IC17=0%, DQN0139bb//IC17=100%
T18 construct: whole, on cells; also called Ba/F3-HLA-DQ2.5/secalin 1
From the text: as §1

[18] = target: T19, HLA-DQ2.5/secalin 2 peptide complex on Ba/F3 cells (human); assay: FACS, Ba/F3 cells; IC17=0%, DQN0139bb//IC17=100%
T19 construct: whole, on cells; also called Ba/F3-HLA-DQ2.5/secalin 2
From the text: as §1

[19] = target: T20, HLA-DQ2.5/14mer 1 peptide complex on Ba/F3 cells (human); assay: FACS, Ba/F3 cells; IC17=0%, DQN0139bb//IC17=100%
T20 construct: whole, on cells; also called Ba/F3-HLA-DQ2.5/14mer 1
From the text: as §1

[20] = target: T21, HLA-DQ2.5/26mer gliadin peptide complex on Ba/F3 cells (human); assay: FACS, Ba/F3 cells; IC17=0%, DQN0139bb//IC17=100%
T21 construct: whole, on cells; also called Ba/F3-HLA-DQ2.5/26mer gliadin
From the text: as §1

[21] = target: T1, HLA-DQ2.5 on HLA-DQ2.5-positive PBMC B …; assay: FACS, PBMC B cells; IC17=0%, DQN0139bb//IC17=100%

T2 sequence (P04233 96-124, chain 2 of 2, other chains not shown): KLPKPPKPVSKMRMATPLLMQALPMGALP

Binder	% MFI [1] [%]	% MFI [2] [%]	% MFI [3] [%]	% MFI [4] [%]	% MFI [5] [%]	% MFI [6] [%]	% MFI [7] [%]	% MFI [8] [%]	% MFI [9] [%]	% MFI [10] [%]	% MFI [11] [%]	% MFI [12] [%]	% MFI [13] [%]	% MFI [14] [%]	% MFI [15] [%]	% MFI [16] [%]	% MFI [17] [%]	% MFI [18] [%]	% MFI [19] [%]	% MFI [20] [%]	also measured
DQN0344xx//DQN0385ee (bispecific antibody, human IgG1, kappa) heavy 1: QSLEESGGGLVKPGGTLTLTCTASGFSFSSSYWMCWVRQAPGKGLEWVACVYGGSDTTYYASWTKGRFTISKGSSTTVALQVTSLTAADTATYFCARDPLNYYYYGELNLWGPGTLVTVSSASTKGPSVFPLAPSSKSTSGGTAALGCLVKDYFPEPVTVSWNSGALTSGVHTFPAVLQSSGLYSLSSVVTVPSSSLGTQTYICNVNHKPSNTKVDKRVEPKSCDKTHTCPPCPAPELRRGPSVFLFPPKPKDTLMISRTPEVTCVVVDVSHEDPEVKFNWYVDGVEVHNAKTKPREEQYNSTYRVVSVLTVLHQDWLNGKEYKCKVSNKALPAPIEKTISKAKGQPREPQVYTLPPSREEMTKNQVSLTCLVKGFYPSDIAVEWESNGQPENNYKTTPPYLDSDGSFFLYSKLTVDKSRWQQGNVFSCSVMHEALHNHYTQESLSLSP light 1: AVVLTQTASPVSAAVGGTVTIRCQATENIYSGLAWYQQKPGQPPKVLIYYVSTLASGVPSRFKGSGSGTEYTLTISGVQCDDAATYYCQTYHDISNVTFGGGTKVEIKRTVAAPSVFIFPPSDEQLKSGTASVVCLLNNFYPREAKVQWKVDNALQSGNSQESVTEQDSKDCTYSLSSTLTLSKADYEKHKVYACEVTHQGLSSPVTKSFNRGEC heavy 2: QEQLEESGGDLVKPGASLTLTCTASGFSFYSSYWICWVRQAPGKGLEWIACIDTGSGSIDYASWVNGRFTISKTSSTTVTLQMTSLTVADTATYFCARDIGIDYNFWGPGTLVTVSSASTKGPSVFPLAPSSKSTSGGTAALGCLVKDYFPEPVTVSWNSGALTSGVHTFPAVLQSSGLYSLSSVVTVPSSSLGTQTYICNVNHKPSNTKVDKRVEPKSCDKTHTCPPCPAPELRRGPSVFLFPPKPKDTLMISRTPEVTCVVVDVSHEDPEVKFNWYVDGVEVHNAKTKPREEQYNSTYRVVSVLTVLHQDWLNGKEYKCKVSNKALPAPIEKTISKAKGQPREPQVYTLPPSRKEMTKNQVSLTCLVKGFYPSDIAVEWESNGQPENNYKTTPPYLDSDGSFFLYSKLTVDKSRWQQGNVFSCSVMHEALHNHYTQKSLSLSP light 2: AFELTQTPSFVEAAVGGTVTIKCQATQSISSYLNWYQQKPGQPPKLLIYYASTLASGVPSRFKGSGSGTEFSLTISGVECADAATYYCHYGISYVSFGGGTKVEIKRTVAAPSVFIFPPSDEQLKSGTASVVCLLNNFYPREAKVQWKVDNALQSGNSQESVTEQDSKDCTYSLSSTLTLSKADYEKHKVYACEVTHQGLSSPVTKSFNRGEC	1.8	58.1	52.3	29.4	4.6	40	71.5	63.5	36.4	61.9	31.1	29.1	26.6	15.6	28	92.2	33.6	43.5	27.6	61.8	% MFI [21]: 0.4%
DQN0385ee//IC17 (bispecific antibody, human IgG1, kappa) heavy 1: QEQLEESGGDLVKPGASLTLTCTASGFSFYSSYWICWVRQAPGKGLEWIACIDTGSGSIDYASWVNGRFTISKTSSTTVTLQMTSLTVADTATYFCARDIGIDYNFWGPGTLVTVSSASTKGPSVFPLAPSSKSTSGGTAALGCLVKDYFPEPVTVSWNSGALTSGVHTFPAVLQSSGLYSLSSVVTVPSSSLGTQTYICNVNHKPSNTKVDKRVEPKSCDKTHTCPPCPAPELRRGPSVFLFPPKPKDTLMISRTPEVTCVVVDVSHEDPEVKFNWYVDGVEVHNAKTKPREEQYNSTYRVVSVLTVLHQDWLNGKEYKCKVSNKALPAPIEKTISKAKGQPREPQVYTLPPSREEMTKNQVSLTCLVKGFYPSDIAVEWESNGQPENNYKTTPPYLDSDGSFFLYSKLTVDKSRWQQGNVFSCSVMHEALHNHYTQESLSLSP light 1: AFELTQTPSFVEAAVGGTVTIKCQATQSISSYLNWYQQKPGQPPKLLIYYASTLASGVPSRFKGSGSGTEFSLTISGVECADAATYYCHYGISYVSFGGGTKVEIKRTVAAPSVFIFPPSDEQLKSGTASVVCLLNNFYPREAKVQWKVDNALQSGNSQESVTEQDSKDCTYSLSSTLTLSKADYEKHKVYACEVTHQGLSSPVTKSFNRGEC heavy 2: QVQLQQSGPQLVRPGASVKISCKASGYSFTSYWMHWVNQRPGQGLEWIGMIDPSYSETRLNQKFKDKATLTVDKSSSTAYMQLSSPTSEDSAVYYCALYGNYFDYWGQGTTLTVSSASTKGPSVFPLAPSSKSTSGGTAALGCLVKDYFPEPVTVSWNSGALTSGVHTFPAVLQSSGLYSLSSVVTVPSSSLGTQTYICNVNHKPSNTKVDKRVEPKSCDKTHTCPPCPAPELRRGPSVFLFPPKPKDTLMISRTPEVTCVVVDVSHEDPEVKFNWYVDGVEVHNAKTKPREEQYNSTYRVVSVLTVLHQDWLNGKEYKCKVSNKALPAPIEKTISKAKGQPREPQVYTLPPSRKEMTKNQVSLTCLVKGFYPSDIAVEWESNGQPENNYKTTPPYLDSDGSFFLYSKLTVDKSRWQQGNVFSCSVMHEALHNHYTQKSLSLSP light 2: DIQMTQSSSSFSVSLGDRVTITCKASEDIYNRLAWYQQKPGNAPRLLISGATSLETGVPSRFSGSGSGKDYTLSITSLQTEDVATYYCQQYWSTPYTFGGGTKLEVKRTVAAPSVFIFPPSDEQLKSGTASVVCLLNNFYPREAKVQWKVDNALQSGNSQESVTEQDSKDSTYSLSSTLTLSKADYEKHKVYACEVTHQGLSSPVTKSFNRGEC	1.3	6	85.6	26	3.4	17.2	75.2	68.1	20.9	19.2	32.4	4	8.3	0.2	24.7	98.3	11.8	34.4	23.3	70.5	% MFI [21]: 0.3%
